Source: PMC4231051, “Protein Thermal Stability Enhancement by Designing Salt Bridges: A Combined Computational and Experimental Study” (PLoS ONE, 2014)
Substitutions are numbered along the chain they refer to. In names and notes the source's numbering stands.

B1: β-glucosidase A (BglA) from Bacillus polymyxa, wild type (enzyme)
chain: TIFQFPQDFMWGTATAAYQIEGAYQEDGRGLSIWDTFAHTPGKVFNGDNGNVACDSYHRYEEDIRLMKELGIRTYRFSVSWPRIFPNGDGEVNQEGLDYYHRVVDLLNDNGIEPFCTLYHWDLPQALQDAGGWGNRRTIQAFVQFAETMFREFHGKIQHWLTFNEPWCIAFLSNMLGVHAPGLTNLQTAIDVGHHLLVAHGLSVRRFRELGTSGQIGIAPNVSWAVPYSTSEEDKAACARTISLHSDWFLQPIYQGSYPQFLVDWFAEQGATVPIQDGDMDIIGEPIDMIGINYYSMSVNRFNPEAGFLQSEEINMGLPVTDIGWPVESRGLYEVLHYLQKYGNIDIYITENGACINDEVVNGKVQDDRRISYMQQHLVQVHRTIHDGLHVKGYMAWSLLDNFEWAEGYNMRFGMIHVDFRTQVRTPKESYYWYRNVVSNNWLETRR
notes: β-glucosidase A (BglA, EC 3.2.1.21) from Bacillus polymyxa, family 1 glycosyl hydrolase; Plasmid pBglA; its vector and construct limits are not described; also called wild type enzyme; source: E. coli BL21 Star (DE3), purified (HisTrap, thrombin, HisTrap, gel filtration on Superdex 200)
B2: β-glucosidase A (BglA) from Bacillus polymyxa, N437D mutant (enzyme)
chain: B1 chain with N436D
notes: β-glucosidase A (BglA, EC 3.2.1.21) from Bacillus polymyxa with N437D, made by site-directed mutagenesis of pBglA; Same construct as m1 apart from the mutation; source: E. coli BL21 Star (DE3), purified (HisTrap, thrombin, HisTrap, gel filtration on Superdex 200)
B3: β-glucosidase A (BglA) from Bacillus polymyxa, N437E mutant (enzyme)
chain: B1 chain with N436E
notes: β-glucosidase A (BglA, EC 3.2.1.21) from Bacillus polymyxa with N437E, made by site-directed mutagenesis of pBglA; Same construct as m1 apart from the mutation; source: E. coli BL21 Star (DE3), purified (HisTrap, thrombin, HisTrap, gel filtration on Superdex 200)

Biological target: the molecule itself
Assay: SEC; gel filtration during purification (HiLoad 26/60 Superdex 200 prep-grade), 50 mM citrate phosphate buffer, pH 7; data not shown

| Protein | stoichiometry N |
| --- | --- |
| B1 | 8 |
| B2 | 4 |
| B3 | 4 |
